Molecular target: prostate specific membrane antigen (PSMA) (UniProt Q04609)
Assay: flow cytometry on LnCAP prostate cancer cells

UniProt Q04609, sequence (Q04609 whole entry): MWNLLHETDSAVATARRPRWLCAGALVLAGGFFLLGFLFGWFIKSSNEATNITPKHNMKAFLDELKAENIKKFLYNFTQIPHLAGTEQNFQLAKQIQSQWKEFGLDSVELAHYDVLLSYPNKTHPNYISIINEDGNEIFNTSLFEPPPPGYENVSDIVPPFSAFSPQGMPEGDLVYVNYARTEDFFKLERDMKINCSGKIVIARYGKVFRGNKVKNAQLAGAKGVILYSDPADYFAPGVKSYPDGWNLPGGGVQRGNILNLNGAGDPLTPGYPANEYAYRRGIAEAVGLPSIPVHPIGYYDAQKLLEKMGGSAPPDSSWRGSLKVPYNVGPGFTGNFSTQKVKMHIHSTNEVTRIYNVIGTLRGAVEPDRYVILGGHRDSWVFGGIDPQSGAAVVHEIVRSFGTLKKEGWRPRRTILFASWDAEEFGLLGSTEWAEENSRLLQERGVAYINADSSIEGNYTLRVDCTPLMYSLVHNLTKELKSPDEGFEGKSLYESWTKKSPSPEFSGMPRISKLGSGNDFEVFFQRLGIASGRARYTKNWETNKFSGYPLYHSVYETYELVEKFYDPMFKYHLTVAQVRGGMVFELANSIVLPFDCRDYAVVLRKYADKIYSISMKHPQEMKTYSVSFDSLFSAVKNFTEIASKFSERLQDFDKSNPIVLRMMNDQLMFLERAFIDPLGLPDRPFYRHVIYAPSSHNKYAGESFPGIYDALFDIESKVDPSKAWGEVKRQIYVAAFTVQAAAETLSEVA

flow cytometry on LnCAP (% positive): 58%
Substance: antibody 7E11 (ATCC #FB 10494) recognizing prostate specific membrane antigen
